Measurements: PMC11677724, “Preclinical Study of a Dual-Target Molecular Probe Labeled with ^68Ga Targeting SSTR2 and FAP” (Pharmaceuticals, 2024)
Read-outs that look alike come from different tables or passages of the source.

Experiments:
[1] = tested on: MC38 cells (SSTR2/FAP, negative); assay: Cell uptake in MC38 cells (negative control); format: cell-based; details: 1.48×10^4 Bq/well, all time points, all p < 0.001
Procedure: The NCI-H727 and Mc38 cell lines were supplied by the Stem Cell Bank of the Chinese Academy of Sciences and were cultivated in Roswell Park Memorial Institute (RPMI-1640) medium with 10% (v/v) fetal bovine serum (FBS) at 37 °C with 5% CO2. All cells were cultured until they reached 80–90% confluence before undergoing trypsinization.
In blocking experiments, an excessive amount of unlabeled FAPI-46, DOTA-TATE, or FAPI-46 + DOTA-TATE (10 µg/well) was added as an inhibitor along with [^68Ga]Ga-TATE-46 to the cells. After 1 h, the cells were processed using the same method. Finally, the cell lysates were gathered, and the radioactivity was measured using a γ-counter. Mc38 cells were used as a negative control, with only [^68Ga]Ga-TATE-46 (1.48 × 10^4 Bq/well, 100 µL) added, and the rest of the procedure was followed as described above.

[2] = Ex vivo biodistribution in NCI-H727 tumor-bearing mice; details: female, BALB/c nude, mouse, in vivo, 1.48 MBq, total radioactivity, γ-counter, mean ± SD, n=3; for tissue uptake at 0.5 h: 0.5 h p.i.; for tissue uptake at 1 h: 1 h p.i.; for tissue uptake at 2 h: 2 h p.i.; for tissue uptake at 4 h: 4 h p.i.
Procedure: (§1) Female BALB/c nude mice were obtained from Charles River Laboratories (Beijing, China). […] Approximately 5 × 10^6 cells were implanted into the right shoulder of each mouse to establish an NCI-H727 tumor model and Mc38 tumor model. Once the tumor volume reached 200–300 mm^3, the mice were used for imaging or biodistribution studies. All animal experiments were carried out in accordance with the National Institutes of Health Guidelines for the Care and Use of Laboratory Animals and were approved by the Animal Protection and Utilization Committee of the General Hospital of the PLA (Approval No.: S2023-209-1).
The NCI-H727 tumor-bearing mice were randomly assigned to four groups (with three mice in each group) and were injected with [^68Ga]Ga-TATE-46 (1.48 MBq, 100 µL). The mice were put to death at 0.5, 1, 2, and 4 h post-injection (p.i.). The tissues and organs of concern were gathered, weighed, and measured for radioactivity using a γ-counter. Additionally, [^68Ga]Ga-DOTA-TATE and [^68Ga]Ga-FAPI-46 were used as control groups in the biodistribution study of the NCI-H727 tumor model at 1 h p.i. After performing time decay correction, the radiotracer uptake in each tissue and organ was calculated as %ID/g.

[3] = Pharmacokinetics, blood time-activity curves, two-compartment model; format: in vivo, BALB/c mice; details: female healthy BALB/c mice, n = 3 per group, 0.37 MBq tail vein, blood 2-120 min, γ-counter, two-compartment model (WinNonlin)
Procedure: Nine female healthy BALB/c mice were randomly divided into three groups (with three mice in each group) using a random number table. Each group was administered 100 µL of [^68Ga]Ga-TATE-46, [^68Ga]Ga-DOTA-TATE, or [^68Ga]Ga-FAPI-46 (0.37 MBq) via tail vein injection. Blood samples (5 µL × 3) were collected at 2, 5, 10, 15, 30, 60, 90, and 120 min post-injection via tail vein. The radioactivity in the blood was measured with a γ-counter and converted to blood radioactivity concentration (kBq/mL). The pharmacokinetic data (time–blood radioactivity concentration) were analyzed by using the two-compartment model in the pharmacokinetic software WinNonlin (Certara, Louis, MO, USA, 2018-06) to determine the distribution and clearance half-life parameters of the radiopharmaceuticals in the mice.

[4] = tested on: NCI-H727 tumor-bearing mice; assay: Micro PET imaging with ROI quantification and blocking, NCI-H727 tumor-bearing mice; format: in vivo, BALB/c nude mice
Procedure: as §1
Each set of NCI-H727 tumor xenograft models (n = 3) was administered with [^68Ga]Ga-TATE-46, [^68Ga]Ga-DOTA-TATE, or [^68Ga]Ga-FAPI-46 (5.55–7.4 MBq, 150 µL/mouse) through the tail vein. Static PET scans were performed at 30 min, 1 h, 2 h, and 4 h after injection for 10 min each. In blocking studies, unlabeled precursors (FAPI-46, DOTA-TATE, FAPI-46 + DOTA-TATE, 10 mg/kg) were co-injected with [^68Ga]Ga-TATE-46. After image acquisition, the images were reconstructed using the three-dimensional ordered subset expectation maximization (3D-OSEM) algorithm and analyzed on the Recon/Avator-s-10 workstation. The percentage of injected dose per gram of tissue (%ID/g) was determined by delineating regions of interest.

[5] = NCI-H727 tumor, read-out: Biodistribution, Tumor (tumor uptake)
[6] = NCI-H727 tumor-bearing mice, read-out: Biodistribution, Blood
[7] = NCI-H727 tumor-bearing mice, read-out: Biodistribution, Bone
[8] = NCI-H727 tumor-bearing mice, read-out: Biodistribution, Brain
[9] = NCI-H727 tumor-bearing mice, read-out: Biodistribution, Heart
[10] = NCI-H727 tumor-bearing mice, read-out: Biodistribution, Intestine
[11] = NCI-H727 tumor-bearing mice, read-out: Biodistribution, Kidney
[12] = NCI-H727 tumor-bearing mice, read-out: Biodistribution, Liver
[13] = NCI-H727 tumor-bearing mice, read-out: Biodistribution, Lung
[14] = NCI-H727 tumor-bearing mice, read-out: Biodistribution, Muscle
[15] = NCI-H727 tumor-bearing mice, read-out: Biodistribution, Spleen
[16] = NCI-H727 tumor-bearing mice, read-out: Biodistribution, Stomach

## C[C@@H](O)[C@H](NC(=O)[C@@H]1CSSC[C@H](NC(=O)[C@@H](Cc2ccccc2)NC(=O)CCCCCNC(=O)CCCCCNC(=O)[C@H](Cc2ccccc2)NC(=O)C(CCC(=O)N[C@@H](Cc2ccccc2)C(=O)NCCCCCC(=O)NCCCCCC(=O)N2CCN(CCCN(C)c3ccc4nccc(C(=O)NCC(=O)N5CC(F)(F)C[C@H]5C#N)c4c3)CC2)NC(=O)CN2CCN(CC(=O)O)CCN(CC(=O)O)CCN(CC(=O)O)CC2)C(=O)N[C@@H](Cc2ccc(O)cc2)C(=O)N[C@H](Cc2c[nH]c3ccccc23)C(=O)N[C@@H](CCCCN)C(=O)N[C@@H]([C@@H](C)O)C(=O)N1)C(=O)O (some centres unmarked) [[^68Ga]Ga-TATE-46, metal not drawn]
[1]
  cellular uptake in MC38 cells compared to NCI-H727 cells: significantly lower
[2]; [5]
  tissue uptake at 0.5 h: 3.56 ± 0.69 %ID/g
  tissue uptake at 1 h: 7.53 ± 1.13 %ID/g
  tissue uptake at 2 h: 7.08 ± 0.88 %ID/g
  tissue uptake at 4 h: 6.48 ± 1.82 %ID/g
[2]; [6]
  tissue uptake at 0.5 h: 13.5 ± 2.03 %ID/g
  tissue uptake at 1 h: 11.3 ± 2.53 %ID/g
  tissue uptake at 2 h: 6.13 ± 0.61 %ID/g
  tissue uptake at 4 h: 4.09 ± 0.21 %ID/g
[2]; [7]
  tissue uptake at 0.5 h: 4.84 ± 0.25 %ID/g
  tissue uptake at 1 h: 4.8 ± 1.08 %ID/g
  tissue uptake at 2 h: 4.65 ± 0.87 %ID/g
  tissue uptake at 4 h: 4.49 ± 0.06 %ID/g
[2]; [8]
  tissue uptake at 0.5 h: 0.37 ± 0.06 %ID/g
  tissue uptake at 1 h: 0.36 ± 0.03 %ID/g
  tissue uptake at 2 h: 0.23 ± 0.04 %ID/g
  tissue uptake at 4 h: 0.24 ± 0.02 %ID/g
[2]; [9]
  tissue uptake at 0.5 h: 4.71 ± 0.3 %ID/g
  tissue uptake at 1 h: 4.15 ± 0.83 %ID/g
  tissue uptake at 2 h: 2.41 ± 0.35 %ID/g
  tissue uptake at 4 h: 1.9 ± 0.09 %ID/g
[2]; [10]
  tissue uptake at 0.5 h: 4.58 ± 2.16 %ID/g
  tissue uptake at 1 h: 3.74 ± 0.72 %ID/g
  tissue uptake at 2 h: 2.85 ± 1.12 %ID/g
  tissue uptake at 4 h: 1.82 ± 1.11 %ID/g
[2]; [11]
  tissue uptake at 0.5 h: 23.9 ± 8.92 %ID/g
  tissue uptake at 1 h: 37 ± 3.89 %ID/g
  tissue uptake at 2 h: 26.5 ± 4.77 %ID/g
  tissue uptake at 4 h: 22.4 ± 6.23 %ID/g
[2]; [12]
  tissue uptake at 0.5 h: 10 ± 2.51 %ID/g
  tissue uptake at 1 h: 10.5 ± 2.84 %ID/g
  tissue uptake at 2 h: 8.4 ± 0.12 %ID/g
  tissue uptake at 4 h: 8.08 ± 0.87 %ID/g
[2]; [13]
  tissue uptake at 0.5 h: 7.03 ± 1.58 %ID/g
  tissue uptake at 1 h: 5.51 ± 0.97 %ID/g
  tissue uptake at 2 h: 3.67 ± 0.68 %ID/g
  tissue uptake at 4 h: 2.69 ± 0.17 %ID/g
[2]; [14]
  tissue uptake at 0.5 h: 2.4 ± 0.48 %ID/g
  tissue uptake at 1 h: 2.39 ± 0.49 %ID/g
  tissue uptake at 2 h: 2.36 ± 0.14 %ID/g
  tissue uptake at 4 h: 2.36 ± 0.32 %ID/g
[2]; [15]
  tissue uptake at 0.5 h: 4.48 ± 0.72 %ID/g
  tissue uptake at 1 h: 4.01 ± 0.79 %ID/g
  tissue uptake at 2 h: 3.05 ± 0.38 %ID/g
  tissue uptake at 4 h: 3.04 ± 0.09 %ID/g
[2]; [16]
  tissue uptake at 0.5 h: 6.84 ± 0.73 %ID/g
  tissue uptake at 1 h: 6.68 ± 0.95 %ID/g
  tissue uptake at 2 h: 6.18 ± 0.43 %ID/g
  tissue uptake at 4 h: 5.05 ± 0.01 %ID/g
[3]
  distribution half-life: 1.79 min
  elimination half-life: 37.75 min
[4]; 5.55–7.4 MBq, 30 min-4 h p.i., n = 3, p < 0.001
  tumor uptake in NCI-H727 tumors (PET ROI) compared with [68Ga]Ga-FAPI-46 and [68Ga]Ga-DOTA-TATE: significantly higher
[4]; blockers 10 μg/g each, NCI-H727 tumors, 1 h p.i., all p < 0.001
  tumor uptake (PET) on co-injection with blocking agents DOTA-TATE, FAPI-46, or DOTA-TATE + FAPI-46: significantly reduced
